# Test results published in PMC4434323.
# Assays:
# [1] = target: T1, tbx-33 (Y66A7A.8) (Caenorhabditis elegans) (UniProt O45291)
# T1 sequence: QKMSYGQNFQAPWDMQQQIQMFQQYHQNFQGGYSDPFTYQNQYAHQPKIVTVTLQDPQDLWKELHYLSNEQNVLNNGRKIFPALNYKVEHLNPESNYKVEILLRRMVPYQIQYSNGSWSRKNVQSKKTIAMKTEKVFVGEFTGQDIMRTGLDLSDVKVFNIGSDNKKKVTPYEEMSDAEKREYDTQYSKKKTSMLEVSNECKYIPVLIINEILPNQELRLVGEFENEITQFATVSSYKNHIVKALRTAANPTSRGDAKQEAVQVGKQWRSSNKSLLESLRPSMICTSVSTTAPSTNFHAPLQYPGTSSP
# [2] = target: T2, elt-6 (F52C12.5) (Caenorhabditis elegans) (UniProt G5EGN3)
# T2 sequence: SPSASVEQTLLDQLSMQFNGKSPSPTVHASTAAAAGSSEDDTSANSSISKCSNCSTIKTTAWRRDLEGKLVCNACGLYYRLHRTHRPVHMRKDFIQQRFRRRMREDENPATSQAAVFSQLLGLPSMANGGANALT
# [3] = target: T3, elt-7 (C18G1.2) (Caenorhabditis elegans) (UniProt O61924)
# T3 sequence: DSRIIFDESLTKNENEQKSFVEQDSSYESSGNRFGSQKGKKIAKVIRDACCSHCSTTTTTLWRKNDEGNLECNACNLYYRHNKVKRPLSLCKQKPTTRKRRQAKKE
# [4] = target: T4, daf-19 (F33H1.1) (Caenorhabditis elegans) (UniProt Q09555)
# T4 sequence: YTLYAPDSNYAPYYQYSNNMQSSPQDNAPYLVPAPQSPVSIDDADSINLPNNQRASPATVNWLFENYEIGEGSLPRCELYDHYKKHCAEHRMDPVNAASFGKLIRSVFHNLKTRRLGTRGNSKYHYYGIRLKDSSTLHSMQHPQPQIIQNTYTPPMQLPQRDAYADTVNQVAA
# [5] = target: T5, F55C5.11 (F55C5.11) (Caenorhabditis elegans) (UniProt Q1ZXU0)
# T5 sequence: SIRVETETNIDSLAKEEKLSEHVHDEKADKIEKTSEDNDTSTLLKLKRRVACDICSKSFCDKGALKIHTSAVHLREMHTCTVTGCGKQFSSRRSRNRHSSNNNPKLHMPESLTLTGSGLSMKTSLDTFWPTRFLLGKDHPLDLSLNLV
# [6] = test system: scrt-1 (C55C2.1) (Caenorhabditis elegans)
# scrt-1 (C55C2.1) (Caenorhabditis elegans), sequence (chain, as listed by the source): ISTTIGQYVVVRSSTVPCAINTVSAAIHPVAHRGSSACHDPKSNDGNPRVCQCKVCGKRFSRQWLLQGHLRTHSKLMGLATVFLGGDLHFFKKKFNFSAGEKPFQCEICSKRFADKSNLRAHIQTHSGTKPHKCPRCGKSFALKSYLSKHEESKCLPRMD
# [7] = target: T6, K02D7.2 (K02D7.2) (Caenorhabditis elegans) (UniProt O45103)
# T6 sequence: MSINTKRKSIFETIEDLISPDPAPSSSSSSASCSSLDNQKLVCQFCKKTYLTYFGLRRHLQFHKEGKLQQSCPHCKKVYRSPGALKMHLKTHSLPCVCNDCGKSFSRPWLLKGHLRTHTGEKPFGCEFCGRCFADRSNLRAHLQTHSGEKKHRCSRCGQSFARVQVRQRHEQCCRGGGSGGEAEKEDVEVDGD
# [8] = target: egl-13 (T22B7.1) (Caenorhabditis elegans) (UniProt Q23045)
# egl-13 (T22B7.1) (Caenorhabditis elegans), sequence (Q23045 279-447): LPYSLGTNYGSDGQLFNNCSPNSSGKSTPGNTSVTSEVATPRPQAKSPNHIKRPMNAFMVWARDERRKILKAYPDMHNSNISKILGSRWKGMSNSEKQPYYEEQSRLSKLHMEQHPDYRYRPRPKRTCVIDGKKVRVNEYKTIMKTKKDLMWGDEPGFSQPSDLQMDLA
# [9] = target: T7, mnm-2 (C10A4.8) (Caenorhabditis elegans) (UniProt Q17895)
# T7 sequence: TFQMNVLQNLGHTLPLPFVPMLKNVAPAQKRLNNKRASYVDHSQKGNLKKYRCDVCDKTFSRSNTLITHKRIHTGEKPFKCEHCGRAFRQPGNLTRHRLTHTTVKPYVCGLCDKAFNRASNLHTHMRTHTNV
# [10] = target: T8, daf-12 (F11A1.3) (Caenorhabditis elegans) (UniProt G5EFF5)
# T8 sequence: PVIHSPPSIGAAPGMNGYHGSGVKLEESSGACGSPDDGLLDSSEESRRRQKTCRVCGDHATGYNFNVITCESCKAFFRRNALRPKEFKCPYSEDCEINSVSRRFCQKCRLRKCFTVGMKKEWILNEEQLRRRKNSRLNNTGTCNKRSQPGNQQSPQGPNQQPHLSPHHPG
sequence,measurement,setting,value
ATCGTCAC (double strand) [8-mer ATCGTCAC],binding signal (PBM E-score (-0.5 to 0.5)),[1],0.487
ATCTCCAC (double strand) [8-mer ATCTCCAC],binding signal (PBM E-score (-0.5 to 0.5)),[1],0.485
ATCTCCAG (double strand) [8-mer ATCTCCAG],binding signal (PBM E-score (-0.5 to 0.5)),[1],0.474
ATCTTCAC (double strand) [8-mer ATCTTCAC],binding signal (PBM E-score (-0.5 to 0.5)),[1],0.488
ATGATAAG (double strand) [8-mer ATGATAAG],binding signal (PBM E-score (-0.5 to 0.5)),[2],0.491
same,binding signal (PBM E-score (-0.5 to 0.5)),[3],0.457
ATGGCAAC (double strand) [8-mer ATGGCAAC],binding signal (PBM E-score (-0.5 to 0.5)),[4],0.468
ATTGTCAC (double strand) [8-mer ATTGTCAC],binding signal (PBM E-score (-0.5 to 0.5)),[5],0.486
same,binding signal (PBM E-score (-0.5 to 0.5)),[1],0.47
CAACCACC (double strand) [8-mer CAACCACC],binding signal (PBM E-score (-0.5 to 0.5)),[6],0.483
CACCTGTA (double strand) [8-mer CACCTGTA],binding signal (PBM E-score (-0.5 to 0.5)),[7],0.457
CACCTGTC (double strand) [8-mer CACCTGTC],binding signal (PBM E-score (-0.5 to 0.5)),[7],0.456
CCTTATCA (double strand) [8-mer CCTTATCA],binding signal (PBM E-score (-0.5 to 0.5)),[2],0.496
same,binding signal (PBM E-score (-0.5 to 0.5)),[3],0.469
CGTTATCA (double strand) [8-mer CGTTATCA],binding signal (PBM E-score (-0.5 to 0.5)),[2],0.493
same,binding signal (PBM E-score (-0.5 to 0.5)),[3],0.478
CGTTGCTA (double strand) [8-mer CGTTGCTA],binding signal (PBM E-score (-0.5 to 0.5)),[4],0.489
CTAGCAAC (double strand) [8-mer CTAGCAAC],binding signal (PBM E-score (-0.5 to 0.5)),[4],0.484
CTGATAAC (double strand) [8-mer CTGATAAC],binding signal (PBM E-score (-0.5 to 0.5)),[2],0.493
same,binding signal (PBM E-score (-0.5 to 0.5)),[3],0.467
CTGATAAG (double strand) [8-mer CTGATAAG],binding signal (PBM E-score (-0.5 to 0.5)),[2],0.496
same,binding signal (PBM E-score (-0.5 to 0.5)),[3],0.472
GAACAATA (double strand) [8-mer GAACAATA],binding signal (PBM E-score (-0.5 to 0.5)),[8],0.478
GAAGTGCA (double strand) [8-mer GAAGTGCA],binding signal (PBM E-score (-0.5 to 0.5)),[9],0.459
same,binding signal (PBM E-score (-0.5 to 0.5)),[10],0.491
GCGCATCA (double strand) [8-mer GCGCATCA],binding signal (PBM E-score (-0.5 to 0.5)),[9],0.47
GCGCATCC (double strand) [8-mer GCGCATCC],binding signal (PBM E-score (-0.5 to 0.5)),[9],0.487
GCGGATCC (double strand) [8-mer GCGGATCC],binding signal (PBM E-score (-0.5 to 0.5)),[9],0.472
GCGTATCC (double strand) [8-mer GCGTATCC],binding signal (PBM E-score (-0.5 to 0.5)),[9],0.454
GCTGATAA (double strand) [8-mer GCTGATAA],binding signal (PBM E-score (-0.5 to 0.5)),[2],0.493
same,binding signal (PBM E-score (-0.5 to 0.5)),[3],0.471
GGTTGCTA (double strand) [8-mer GGTTGCTA],binding signal (PBM E-score (-0.5 to 0.5)),[4],0.493
GTAACTAA (double strand) [8-mer GTAACTAA],binding signal (PBM E-score (-0.5 to 0.5)),[4],0.465
GTAGCAAC (double strand) [8-mer GTAGCAAC],binding signal (PBM E-score (-0.5 to 0.5)),[4],0.46
GTTGCTAA (double strand) [8-mer GTTGCTAA],binding signal (PBM E-score (-0.5 to 0.5)),[4],0.487
TAACAATA (double strand) [8-mer TAACAATA],binding signal (PBM E-score (-0.5 to 0.5)),[8],0.464
TAGCAACA (double strand) [8-mer TAGCAACA],binding signal (PBM E-score (-0.5 to 0.5)),[4],0.474
TATGATAA (double strand) [8-mer TATGATAA],binding signal (PBM E-score (-0.5 to 0.5)),[3],0.457
TGATAACA (double strand) [8-mer TGATAACA],binding signal (PBM E-score (-0.5 to 0.5)),[2],0.492
same,binding signal (PBM E-score (-0.5 to 0.5)),[3],0.458
